± gives the uncertainty stated by the source.
Assay: amyloid nucleation score (Sup35N fusion, yeast selection) (log enrichment); library NNK2; higher = more nucleation; inactive = no reads after selection
Procedure, shortened: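 Nucleation score: DiMSum log enrichment of output over input reads, centred on the mode score of non-aggregating sequences. Only sequences with at least 100 input reads were kept. Reads came from Illumina sequencing of plasmid inserts before and after 7 days of growth at 30°C without adenine and uracil, in psi-negative yeast expressing Sup35N fused to peptides of 20 random codons after 24 hours of induction with 100 μM copper sulfate.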

Substance	amyloid nucleation score
GHVAWSNDSWERESFF	-0.989 ± 0.76
RYPVESCVHSFLESRVRDQG	0.881 ± 0.45
FYNNPDGDRVDVRSCCYYMW	7.19 ± 0.073
QIFKDSWSNIFRVYSCAVGM	4.33 ± 0.062
FGMLFGQDKTVHRSGLDLCG	0.119 ± 0.5
LTVFTPR	-0.62 ± 0.37
FQGCIPFLFVNSWFSYSFVK	-1.36 ± 1.1
SSIGYVDYAEFEAGFFIYIV	-0.823 ± 0.44
ALCYWRNSPSVGRRQWRRQC	6.654 ± 0.057
RTLNGADFS	0.486 ± 0.8
LKLGFRIQLPLLSYGYPFLW	-1.29 ± 0.39
FRTSYRSCCVNTYREVVVYA	-0.501 ± 0.45
RGRCPCEVFNGSYVFVTHGD	inactive
YRHYIGRTSFTLY	-0.232 ± 1.1
TRWARYALNVIEHWQLSWVK	0.145 ± 0.63
NVIVFRMGCRILNWGAQYGR	6.44 ± 0.082
HTWHLDRSLNLSMSLEPMLL	0.233 ± 0.4
FVSFSVGWTLCADMNLRMCF	1.24 ± 0.22
RMDKAGRSGV	0.656 ± 0.26
LQASDKGKLLRTIPLRHYVP	1.02 ± 0.33
LIRVILDGGKGKAGNTWVLQ	5.17 ± 0.098
SGLSAVGSLGVNIEISSFVR	-0.983 ± 0.78

Substance	amyloid nucleation score
GSCPRSDAKSAADCIQV	-0.177 ± 0.79
ACNSTFNRIEVYARVMKDTS	3.96 ± 0.094
APWYIL	0.225 ± 0.36
LRLTRVYSSYRESVKKKI	0.418 ± 0.21
TKGFVTGVGGRSLIIVGCGA	0.664 ± 0.51
SSQSHGGRFQIEYFW	-0.059 ± 0.33
VEFIVSWHGPAKRYPYATTL	0.629 ± 0.34
RLSCFMNRGVREDSDSN	-0.766 ± 0.61
NMDKRSNGFRKCMWLS	-0.883 ± 1.1
FNSWLV	-0.86 ± 1.1
LILRGDS	-0.913 ± 0.4
CFKMIFDQGSPKMRMHHIGV	0.234 ± 0.54
SRMVDR	0.345 ± 0.45
LTSWDHN	0.131 ± 0.31
KDFFSVVSH	0.573 ± 0.66
LLLINFSYNALTKVRSEEYL	3.86 ± 0.084
MFIWPCYFHNIRVGQLFGFG	0.091 ± 0.63
NRKRLWHYFLGTKDISIERV	inactive
FHVTVRFRSYCIFDPRGCVI	1.81 ± 0.21
PTCMLCA	0.868 ± 0.44
QFSLAVSTLSL	1.48 ± 0.27
FAYKNRNM	-0.307 ± 0.41

Substance	amyloid nucleation score
EEQKSYSENMPV	-0.21 ± 0.56
VFWSVYFDACLVFMTVSYLL	inactive
VNNNLLNASLAMVSM	inactive
TVMLFVSLQRCH	inactive
DSRTFGITYYNDVLITGLCR	-0.709 ± 0.39
IMSSISRSNCVSLVV	inactive
NWGSRNFCW	-1.26 ± 1.1
VTIEFATHLWGVMY	4.78 ± 0.072
MKLFISNHTLWSIGKGDGVT	inactive
VENRMVVLRSSIAIWVSRTV	0.955 ± 0.34
PSYRCK	inactive
PLDTYLWAYLLPWWSLCTSI	inactive
TYRIQRIFLPLYRWLVLLLS	-0.285 ± 0.76
LWLPQFEDCSREHTCEFLAI	0.237 ± 0.56
CKLWECTLLVGWGNLLRVRG	-0.276 ± 0.76
EERVCLSPSDSSSRMLGQKV	-0.078 ± 0.35
SSLRKRRLVVRNVAKSRMFL	2.14 ± 0.31
TLTLSTIHWNLY	6.13 ± 0.066
WTSPGSLPKRALCGRVERYA	-0.53 ± 0.29
SLSLSSVERNGAANSAREFG	0.647 ± 0.31
FWLAWLAVRTNHFLAKITD	-0.267 ± 0.28
NPDLNKT	1.36 ± 0.39

Substance	amyloid nucleation score
SYCSLVFLTDISSYIGFQCV	5.16 ± 0.078
YQRNSFNDHADYPYHELVKS	0.222 ± 0.64
GALTQSVLIYRH	2.12 ± 0.13
LNLILIDFKTSRCVERPFRE	7.052 ± 0.051
MSSHSTCRGVGINGLMVFVL	8.073 ± 0.057
IFLIK	-0.249 ± 1.1
ACWKRMN	inactive
AHSATINA	-0.113 ± 0.44
RVRIVPDCFNVAACGGWYMD	-0.062 ± 0.45
KLFIRWVAWY	0.113 ± 0.8
NDSFSFDSRCVVDRFGVAKK	-0.612 ± 0.76
RYGGRMAMRINYISIMSADY	0.138 ± 0.47
LWVFLLAWSAQLYDWSMATR	-0.12 ± 0.79
IIGFLFMDFLLSCRFQFCT	-1.32 ± 0.45
IEDSEREMACINPGFSFVVV	-1.83 ± 1.1
TTDCG	-0.712 ± 0.33
GEQDDVPRFGYTKACEFLFA	inactive
GTTMTPFPRKCFRSVILFVG	1.1 ± 0.3
FFSNL	0.119 ± 0.57
EGTCPSSGNILSWKSFCVVG	-0.519 ± 0.25

— the supplement of paper PMC12042874
